Data published in patent US7635583B2, “Protein crystal comprising the processivity clamp factor of DNA polymerase and a ligand, and its uses” (Centre National de la Recherche Scientifique, priority 2003, dated 2009).

Assays:
Pol IV DNA polymerase = molecular target: T1, Pol IV DNA polymerase (Escherichia coli, UniProt Q47155); assay: intrinsic (β-independent) activity of Pol IV, primer extension on β free primer/template; format: biochemical; conditions: peptide 1, 10, 25 μM, Pol IV 1.5 nM
T1 sequence (Q47155 1-351): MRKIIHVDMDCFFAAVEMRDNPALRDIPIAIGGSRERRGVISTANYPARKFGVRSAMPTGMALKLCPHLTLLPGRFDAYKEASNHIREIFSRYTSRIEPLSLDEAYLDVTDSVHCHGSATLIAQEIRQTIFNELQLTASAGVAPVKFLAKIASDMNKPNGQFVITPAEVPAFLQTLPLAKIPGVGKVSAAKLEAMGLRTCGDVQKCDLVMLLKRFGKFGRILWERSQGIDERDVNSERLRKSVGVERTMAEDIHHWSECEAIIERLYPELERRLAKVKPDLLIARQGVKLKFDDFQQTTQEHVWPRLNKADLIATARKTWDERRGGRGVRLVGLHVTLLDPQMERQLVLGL
Experimental: FIG. 3A represents the migration pattern of an electrophoresis gel. β free (lanes 1-4 and 9-12) or β loaded (lanes 5-8 and 13-16) labelled primer/template hybrids are incubated with increasing amounts of control peptide (CLIP) (lanes 1-8) or P16 peptide (lanes 9-16). Concentrations of peptides are as follows: 0 μM, lanes 1, 5, 9 and 13; 1 μM, lanes 2, 6, 10 and 14; 10 μM, lanes 3, 7, 11 and 15; 25 μM, lanes 4, 8, 12 and 16. This mixture is then submitted to the enzymatic activity of Pol IV (1.5 nM) in the presence of each four dNTPs for 1 minute at room temperature. Beside the overall increase in DNA synthesis activity, the β-dependent activity of the polymerase is characterised by the apparition of synthesis products longer than 12 nucleotides (β dependent synthesis), β independent synthesis is characterised by products shorter than 12 nucleotides. […] FIG. 3B represents the quantitative analysis of the relative amounts of each β-independent (incorporation of 1 up to 12 nucleotides) and β-dependent (12 and more nucleotides incorporation) activities observed in lanes 5-8 and 13-16. Black and white rectangles represent the ratio of β-dependent to β-independent polymerase activities (vertical axis) in the presence of specified amounts of CLIP and P16 peptides (horizontal axis), respectively. […]

[1] = molecular target: β clamp-Pol IV DNA polymerase interaction (Escherichia coli, UniProt P0A988); conditions: Pol IV 1.5 nM; for effect on β-dependent Pol IV activity: peptide 1, 10, 25 μM
β clamp-Pol IV DNA polymerase interaction, sequence (P0A988 whole entry): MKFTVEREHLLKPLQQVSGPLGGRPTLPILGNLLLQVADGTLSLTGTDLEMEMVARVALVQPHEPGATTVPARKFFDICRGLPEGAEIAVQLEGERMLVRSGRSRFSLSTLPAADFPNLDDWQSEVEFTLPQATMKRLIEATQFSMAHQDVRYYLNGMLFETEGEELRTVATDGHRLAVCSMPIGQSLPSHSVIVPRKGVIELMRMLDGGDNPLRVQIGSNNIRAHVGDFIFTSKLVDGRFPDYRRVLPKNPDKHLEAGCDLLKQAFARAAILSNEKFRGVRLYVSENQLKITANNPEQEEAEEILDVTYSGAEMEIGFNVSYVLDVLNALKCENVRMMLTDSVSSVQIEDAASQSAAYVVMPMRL
Experimental: FIG. 3A represents the migration pattern of an electrophoresis gel. β free (lanes 1-4 and 9-12) or β loaded (lanes 5-8 and 13-16) labelled primer/template hybrids are incubated with increasing amounts of control peptide (CLIP) (lanes 1-8) or P16 peptide (lanes 9-16). Concentrations of peptides are as follows: 0 μM, lanes 1, 5, 9 and 13; 1 μM, lanes 2, 6, 10 and 14; 10 μM, lanes 3, 7, 11 and 15; 25 μM, lanes 4, 8, 12 and 16. This mixture is then submitted to the enzymatic activity of Pol IV (1.5 nM) in the presence of each four dNTPs for 1 minute at room temperature. Beside the overall increase in DNA synthesis activity, the β-dependent activity of the polymerase is characterised by the apparition of synthesis products longer than 12 nucleotides (β dependent synthesis), β independent synthesis is characterised by products shorter than 12 nucleotides. […] FIG. 3B represents the quantitative analysis of the relative amounts of each β-independent (incorporation of 1 up to 12 nucleotides) and β-dependent (12 and more nucleotides incorporation) activities observed in lanes 5-8 and 13-16. Black and white rectangles represent the ratio of β-dependent to β-independent polymerase activities (vertical axis) in the presence of specified amounts of CLIP and P16 peptides (horizontal axis), respectively. Decrease in this ratio value actually indicates a specific inhibition of the β-dependent polymerase activity.
(§1) Briefly, P16 peptide and a control peptide (CLIP) were diluted in 20 mM NaHCO3 at concentrations of 250, 100 and 10 pmol/μl. 5′ end radiolabelling, purification and annealing of synthetic primers were performed as previously described (Wagner et al., 1999).
All replication experiments (10 μl final volume) were carried out in buffer E (40 mM HEPES pH 7.5, 80 mM potassium glutamate, 160 μg/ml BSA, 16% glycerol, 0.016% NP40, 8 mM DTT). The 30/90 nucleotide hybrid was first incubated with single strand binding proteins (SSB; Sigma; 90 nM final concentration) in the presence of ATP (200 μM) and MgCl2 (7.5 mM) at 37° C. for 10 min. […]

[2] = molecular target: β clamp-α subunit of DNA Polymerase III interaction (Escherichia coli, UniProt P0A988); conditions: peptide 1, 10, 25 μM; α subunit 6 nM
β clamp-α subunit of DNA Polymerase III interaction, sequence (P0A988 whole entry): as above
Experimental: as §1
All replication experiments (10 μl final volume) were carried out in buffer E (40 mM HEPES pH 7.5, 80 mM potassium glutamate, 160 μg/ml BSA, 16% glycerol, 0.016% NP40, 8 mM DTT). The 30/90 nucleotide hybrid was first incubated with single strand binding proteins (SSB; Sigma; 90 nM final concentration) in the presence of ATP (200 μM) and MgCl2 (7.5 mM) at 37° C. for 10 min. When specified, the γ complex (1 nM final concentration) (gift from Dr. C. S. McHenry, Denver, USA), and the β clamp (5 nM as dimer final concentration) were added at that stage, and incubation was carried out at 37° C. for 10 min. Then, 7 μl of the mixture was added to 1 μl of either 20 mM NaHCO3 or 1 μl of peptide solution (1, 10 or 25 μM final concentration), incubated 20 min. at room temperature and farther 2 hours at 4° C.

Sequence	effect on intrinsic activity of Pol IV (distributive incorporation of one to up to 12 nucleotides) (Pol IV DNA polymerase)	effect on β-dependent Pol IV activity [1]	effect on α subunit β-dependent activity [2]	decrease of β-dependent Pol IV activity (factor) ([1]; highest P16 concentration tested, 25 μM, β clamp 5 nM)
RPVKVTPNGAEDESAEAFPLEF (Control peptide) [CLIP, reference compound]	neither P16 nor CLIP peptides do affect	no effect		
VTLLDPQMERQLVLGL (listed as Escherichia coli) [P16]	neither P16 nor CLIP peptides do affect	inhibits the β-dependent activity of Pol IV	dose dependent inhibition	around 30
